What was measured:
Test in all cases: cell-based or functional assay
[1] = biological target: T1, SARS-CoV-2 spike protein G476S (SARS-CoV-2, UniProt P0DTC2 14-1273)
[2] = biological target: T2, SARS-CoV-2 spike protein D614G (SARS-CoV-2, UniProt P0DTC2 14-1273)
[3] = biological target: T3, SARS-CoV-2 spike protein V483A (SARS-CoV-2, UniProt P0DTC2 14-1273)
[4] = biological target: T4, SARS-CoV-2 spike protein, wild type (Wuhan) (SARS-CoV-2, UniProt P0DTC2 14-1273)
[5] = biological target: SARS-CoV-2 spike protein D614G x Q675H (SARS-CoV-2, UniProt P0DTC2 14-1273)
[6] = biological target: T4, SARS-CoV-2 spike protein, wild type …; remark: listed apart in the source
[7] = biological target: spike protein of live SARS-CoV-2 (2019-nCoV/IDF0372/2020) (SARS-CoV-2, UniProt P0DTC2 14-1273)
[8] = biological target: T1, SARS-CoV-2 spike protein G476S; remark: listed apart in the source
[9] = biological target: T2, SARS-CoV-2 spike protein D614G; remark: listed apart in the source
[10] = biological target: SARS-CoV-2 spike protein N439K (SARS-CoV-2, UniProt P0DTC2 14-1273)
[11] = biological target: SARS-CoV-2 spike protein F490S (SARS-CoV-2, UniProt P0DTC2 14-1273)
[12] = biological target: SARS-CoV-2 spike protein Y453F (SARS-CoV-2, UniProt P0DTC2 14-1273)
[13] = biological target: T3, SARS-CoV-2 spike protein V483A; remark: listed apart in the source
[14] = biological target: SARS-CoV-2 spike protein G446V (SARS-CoV-2, UniProt P0DTC2 14-1273)
[15] = biological target: T4, SARS-CoV-2 spike protein, wild type …; remark: listed apart in the source
[16] = biological target: SARS-CoV-2 spike protein F486V (SARS-CoV-2, UniProt P0DTC2 14-1273)
[17] = biological target: SARS-CoV-2 spike protein S477N (SARS-CoV-2, UniProt P0DTC2 14-1273)
[18] = biological target: SARS-CoV-2 spike protein K417E (SARS-CoV-2, UniProt P0DTC2 14-1273)
[19] = biological target: SARS-CoV-2 spike protein variant B.1.351 (SARS-CoV-2, UniProt P0DTC2 14-1273)
[20] = biological target: SARS-CoV-2 spike protein P479S (SARS-CoV-2, UniProt P0DTC2 14-1273)
[21] = biological target: SARS-CoV-2 spike protein Q493K (SARS-CoV-2, UniProt P0DTC2 14-1273)
[22] = biological target: SARS-CoV-2 spike protein T478I (SARS-CoV-2, UniProt P0DTC2 14-1273)
[23] = biological target: SARS-CoV-2 spike protein E484K (SARS-CoV-2, UniProt P0DTC2 14-1273)
[24] = biological target: SARS-CoV-2 spike protein N501Y (SARS-CoV-2, UniProt P0DTC2 14-1273)
[25] = biological target: SARS-CoV-2 spike protein A222V (SARS-CoV-2, UniProt P0DTC2 14-1273)

B1: ALE058 (designed binder)
chain: MRGSHHHHHHGSDLGKKLLEAARAGQDDEVRELLKAGADVNAKDYFSHTPLHLAARNGHLKIVEVLLKAGADVNAKDFAGKTPLHLAANEGHLEIVEVLLKAGADVNAQDIFGKTPADIAADAGHEDIAEVLQKAAGSPTPTPTTPTPTPTTPTPTPTGSDLGKKLLEAARAGQDDEVRELLKAGADVNAKDYFSHTPLHLAARNGHLKIVEVLLKAGADVNAKDFAGKTPLHLAANEGHLEIVEVLLKAGADVNAQDIFGKTPADIAADAGHEDIAEVLQKAAGSPTPTPTTPTPTPTTPTPTPTGSDLGKKLLQAARAGQLDEVRELLKAGADVNAKDQEGITPLHVAAHQGHLEIVEVLLKAGADVNAKDVWGRTPLHLAAWRGHLEIVEVLLKAGADVNAKDHAGATPLHAAALSGHLEIVEVLLKAGADVNAQDKSGKTPADLAARAGHQDIAEVLQKAAGSPTPTPTTPTPTPTTPTPTPTGSDLGHKLLLAAQAGQDDEVRILLAAGADVNAKDVFGQTPLHVAAVAGHLEIVEVLLKAGADVNAKDSIGYTPLHHAARVGHLEIVEVLLKAGADVNAQDWIGITPADLAAFEGHEDIAEVLQKAAGSPTPTPTTPTPTPTTPTPTPTGSDLGQKLLHAAQYGQDDEVRILLAAGADVNAKDKQGNTPLHIAAFHGHLEIVEVLLKAGADVNAKDQWGLTPLHLAAAWGHLEIVEVLLKAGADVNAQDNYGQTPADLAAESGHEDIAEVLQKAA
**Q.** What does the source list for B1?
**A.** Potency of inhibition of SARS-CoV-2 spike protein variants (IC50) [1]: 0.0145 nM; Potency of inhibition of SARS-CoV-2 spike protein variants (IC50) [2]: 0.00464 nM; Potency of inhibition of SARS-CoV-2 spike protein variants (IC50) [3]: 0.0324 nM; Potency of inhibition of SARS-CoV-2 spike protein variants (IC50) [4]: 0.00548 nM; Potency of inhibition of SARS-CoV-2 spike protein variants (IC50) [5]: 0.0224 nM; IC50 (read off the curve), SARS-CoV-2 VSV pseudotype virus, no competitor [6]: ~0.1 nM; IC50 LV (live virus cytopathic effect assay) [7]: 0.1 nM

B2: ALE049 (designed binder)
chain: MRGSHHHHHHGSDLGKKLLEAARAGQDDEVRELLKAGADVNAKDYFSHTPLHLAARNGHLKIVEVLLKAGADVNAKDFAGKTPLHLAANEGHLEIVEVLLKAGADVNAQDIFGKTPADIAADAGHEDIAEVLQKAAGSPTPTPTTPTPTPTTPTPTPTGSDLGKKLLEAARAGQDDEVRELLKAGADVNAKDYFSHTPLHLAARNGHLKIVEVLLKAGADVNAKDFAGKTPLHLAANEGHLEIVEVLLKAGADVNAQDIFGKTPADIAADAGHEDIAEVLQKAAGSPTPTPTTPTPTPTTPTPTPTGSDLGKKLLQAARAGQLDEVRELLKAGADVNAKDREGITPLHLAAQHGHLEIVEVLLKAGADVNAKDVWGRTPLHLAAWQGHLEIVEVLLKAGADVNAKDLAGATPLHVAALYGHLEIVEVLLKAGADVNAQDKSGKTPADLAARAGHQDIAEVLQKAAGSPTPTPTTPTPTPTTPTPTPTGSDLGKKLLQAARAGQLDEVRELLKAGADVNAKDREGKTPLHVAAQEGHLEIVEVLLKAGADVNAKDVWGRTPLHLAAWIGHLEIVEVLLKAGADVNAKDVSGATPLHAAALHGHLEIVEVLLNAGADVNAQDKSGKTPADLAARAGHQDIAEVLQKAAGSPTPTPTTPTPTPTTPTPTPTGSDLGKKLLQAARAGQLDEVRELLKAGADVNAKDQEGITPLHVAAHQGHLEIVEVLLKAGADVNAKDVWGRTPLHLAAWRGHLEIVEVLLKAGADVNAKDHAGATPLHAAALSGHLEIVEVLLKAGADVNAQDKSGKTPADLAARAGHQDIAEVLQKAA
**Q.** Which results are given for B2?
**A.** Potency of inhibition of SARS-CoV-2 spike protein variants (IC50) [1]: 0.0271 nM; Potency of inhibition of SARS-CoV-2 spike protein variants (IC50) [2]: 0.0118 nM; Potency of inhibition of SARS-CoV-2 spike protein variants (IC50) [3]: 0.0275 nM; Potency of inhibition of SARS-CoV-2 spike protein variants (IC50) [4]: 0.0165 nM; Potency of inhibition of SARS-CoV-2 spike protein variants (IC50) [5]: 0.0121 nM; VSV Pseudotype Neutralization Assay IC50 [8]: 1.5 ng/mL; VSV Pseudotype Neutralization Assay IC50 [9]: 2.4 ng/mL; VSV Pseudotype Neutralization Assay IC50 [10]: 1.3 ng/mL; VSV Pseudotype Neutralization Assay IC50 [11]: 3.8 ng/mL; VSV Pseudotype Neutralization Assay IC50 [12]: 3.2 ng/mL; VSV Pseudotype Neutralization Assay IC50 [13]: 2.3 ng/mL; VSV Pseudotype Neutralization Assay IC50 [14]: 1.7 ng/mL; VSV Pseudotype Neutralization Assay IC50 [15]: 1 ng/mL; VSV Pseudotype Neutralization Assay IC50 [16]: > 100 ng/mL; VSV Pseudotype Neutralization Assay IC50 [17]: 1.9 ng/mL; VSV Pseudotype Neutralization Assay IC50 [18]: 0.5 ng/mL; VSV Pseudotype Neutralization Assay IC50 [19]: 3 ng/mL; VSV Pseudotype Neutralization Assay IC50 [20]: 2.1 ng/mL; VSV Pseudotype Neutralization Assay IC50 [21]: 7.9 ng/mL; VSV Pseudotype Neutralization Assay IC50 [22]: 2.7 ng/mL; VSV Pseudotype Neutralization Assay IC50 [23]: 2.7 ng/mL; VSV Pseudotype Neutralization Assay IC50 [24]: 0.5 ng/mL; VSV Pseudotype Neutralization Assay IC50 [25]: 2.2 ng/mL; IC50 (read off the curve), SARS-CoV-2 VSV pseudotype virus, no competitor [6]: ~0.1 nM; IC50 LV (live virus cytopathic effect assay) [7]: 0.025 nM
